Literature values in PMC3263801.

Target: hDM2 (Homo sapiens) (UniProt Q00987)
Sequence (Q00987 whole entry): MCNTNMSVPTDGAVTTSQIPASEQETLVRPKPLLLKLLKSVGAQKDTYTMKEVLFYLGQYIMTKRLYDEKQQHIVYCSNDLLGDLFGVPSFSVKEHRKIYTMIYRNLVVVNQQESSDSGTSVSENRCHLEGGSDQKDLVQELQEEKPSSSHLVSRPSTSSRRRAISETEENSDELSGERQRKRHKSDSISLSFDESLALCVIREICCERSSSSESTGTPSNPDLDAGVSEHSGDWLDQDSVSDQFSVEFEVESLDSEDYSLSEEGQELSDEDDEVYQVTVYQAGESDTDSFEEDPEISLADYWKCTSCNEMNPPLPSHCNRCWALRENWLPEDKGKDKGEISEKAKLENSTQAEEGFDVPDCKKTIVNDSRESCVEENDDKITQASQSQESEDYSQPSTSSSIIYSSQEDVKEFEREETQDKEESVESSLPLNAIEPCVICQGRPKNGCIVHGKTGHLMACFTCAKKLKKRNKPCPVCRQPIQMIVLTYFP

Kd: 0.9 nM
Substance: stapled p53 peptide (from UniProt P04637)
